Results: PMC12369479, “A monomer–dimer switch modulates the activity of plant adenosine kinase” (Journal of Experimental Botany, 2025)
One block for each substance: values may come before it.

What was measured:
[1] = target: Arabidopsis thaliana adenosine kinase 2 (6×His-AtADK2) (Arabidopsis thaliana) (UniProt Q9LZG0); experiment: dynamic light scattering; AtADK2 at higher concentrations (5 mg/ml) (preliminary results)
[2] = target: Arabidopsis thaliana adenosine kinase 2 (6×His-AtADK2) (Arabidopsis thaliana) (UniProt Q9LZG0); experiment: SEC; gel permeation chromatography of 6×His-AtADK2 at 1.2 mg/ml (preliminary results, Supplementary Fig. S10)
[3] = target: Physcomitrella patens adenosine kinase 1 (PpADK1) (Physcomitrella patens) (UniProt O49923)
[4] = target: Physcomitrella patens adenosine kinase 1 (PpADK1) (Physcomitrella patens) (UniProt O49923); experiment: dynamic light scattering; hydrodynamic diameter, 20 mM Tris-HCl pH 7.5, 1 mM MgCl2, apoform or with 2 mM ATP, 22 °C
[5] = target: Physcomitrella patens adenosine kinase 1 (PpADK1) (Physcomitrella patens) (UniProt O49923); experiment: SAXS; small-angle X-ray scattering, 50 mM Tris-HCl pH 7.5, three concentrations up to 5 mg/ml; Guinier analysis and Bayesian molecular weight estimate
[6] = target: Physcomitrella patens adenosine kinase 1 (PpADK1) (Physcomitrella patens) (UniProt O49923); experiment: AUC; sedimentation velocity of PpADK1 at a higher concentration (>0.3 mg/ml), 20 mM Tris-HCl pH 7.5, 150 mM NaCl, 10 mM MgCl2, 10 µM DTT, 1% glycerol, 25 °C, c(s) analysis; monomer to dimer
[7] = target: Physcomitrella patens adenosine kinase 1 (PpADK1) (Physcomitrella patens) (UniProt O49923); experiment: SEC; gel permeation chromatography of moss ADKs on Superdex 200 10/30 HR, 20 mM Tris-HCl pH 7.5, 100 mM NaCl; dimers from 0.01 mg/ml (0.25 µM), mainly dimeric above 0.3 mg/ml (7.7 µM); monomer to dimer
[8] = target: Physcomitrella patens adenosine kinase 2 (PpADK2) (Physcomitrella patens)
[9] = target: Physcomitrella patens adenosine kinase 2 (PpADK2) (Physcomitrella patens); experiment: SEC; gel permeation chromatography of moss ADKs on Superdex 200 10/30 HR, 20 mM Tris-HCl pH 7.5, 100 mM NaCl; dimers from 0.01 mg/ml (0.25 µM), mainly dimeric above 0.3 mg/ml (7.7 µM); monomer to dimer
[10] = target: Zea mays adenosine kinase 1 (ZmADK1) (Zea mays); experiment: SEC; gel permeation chromatography of maize ADKs at higher concentrations (30 mg/ml), Supplementary Fig. S1
[11] = target: Zea mays adenosine kinase 2 (ZmADK2) (Zea mays); experiment: as above
[12] = target: Zea mays adenosine kinase 3 (ZmADK3) (Zea mays); experiment: as above

stoichiometry N [1]: 2
stoichiometry N [2]: 2
Substance: Arabidopsis thaliana adenosine kinase 2 (6×His-AtADK2) (from UniProt Q9LZG0 1-345) (enzyme)

specific activity with 100 µM Ado (coupled reaction with PK and LDH, 30 °C) (nmol s^–1 mg^–1) [3]: 5.09
stoichiometry N [4]: 2
stoichiometry N [5]: 2
stoichiometry N [6]: 2
stoichiometry N [7]: 2
Substance: Physcomitrella patens adenosine kinase 1 (PpADK1) (from UniProt O49923 1-343) (enzyme)

specific activity with 100 µM Ado (coupled reaction with PK and LDH, 30 °C) (nmol s^–1 mg^–1) [8]: 4.7
stoichiometry N [9]: 2
Substance: Physcomitrella patens adenosine kinase 2 (PpADK2) (enzyme)

stoichiometry N [10]: 2
Substance: Zea mays adenosine kinase 1 (ZmADK1) (enzyme)

stoichiometry N [11]: 2
Substance: Zea mays adenosine kinase 2 (ZmADK2) (enzyme)

stoichiometry N [12]: 2
Substance: Zea mays adenosine kinase 3 (ZmADK3) (enzyme)
